“And” between values parts separate entries of the source, which are not always exact repeats. Equal values may be shown once. Where no end group is shown, it is not given here.
Experiments:
[1] = test system: GLP-1 receptor; assay: GLP-1 receptor activation, in vitro assays; format: cell-based; conditions: for GLP-1 Receptor Activation: activity relative to the activity of GLP-1(7-37)OH
Source text: “Insulinotropic activity” refers to stimulating insulin secretion in response to elevated glucose levels, thereby causing glucose uptake by cells and decreased serum glucose levels. Insulinotropic activity can be assessed by methods known in the art, including using in vivo experiments and in vitro assays that measure GLP-1 receptor binding activity or receptor activation, e.g., assays employing pancreatic islet cells or insulinoma cells, as described in EP 619,322 to Gelfand, et al., and U.S. Pat. No. 5,120,712, respectively. The entire teachings of these references are incorporated herein by reference.
The ability of the GLP-1 compounds of the present invention to activate the GLP-1 receptor was assessed using in vitro assays such as those described in EP 619,322 to Gelfand, et al., and U.S. Pat. No. 5,120,712, respectively. The entire teachings of these references are incorporated herein by reference.

[2] = Zinc precipitation of GLP-1 compounds (A280 of supernatant); format: physicochemical; conditions: HEPES pH 7.4, 22° C., 18 hours
Method: Individual GLP-1 compounds were prepared as described in Examples 1 or 2. 3 mg of an individual lyophilized GLP molecule was dissolved in 3 ml 0.1 M HEPES buffer pH 10.5. The pH of the resulting solution was then adjusted to between 10.0 and 10.5 with 0.2 N NaOH. The solution was stirred at ambient temperature for 30 minutes and the solution was then adjusted to a pH of 7.4 with 0.2 N HCl. The solution was filtered through an appropriate syringe filter, for example a Millex GV syringe filter (Millipore Corporation, Bedford, Mass.), and the concentration of the GLP-1 compound was estimated by measuring the absorption at 280 nm in a spectrophotometer, for example a Beckman DU640. The protein concentration was then adjusted to 200 μM in HEPES pH 7.4.
The filtered GLP-1 solutions (100 μl) were diluted with 100 μl of 0.1 M HEPES pH 7.4 containing various levels of zinc chloride in an ELISA plate, (e.g. Falcon Microtest™ 96) resulting in 200 μl of solution containing various levels of zinc chloride and 100 μM GLP-1 compounds. These solutions were incubated at ambient temperature (22° C.) for 18 hours and then centrifuged, for example, in a Jouan CR412 centrifuge with microplate adapters. 150 μl of the supernatants after centrifugation were then transferred to a UV-readable ELISA microtiter plate (e.g. Costar UV plate) and the OD at 280 was determined in a microplate reader (e.g. Molecular Devices SPECTRAmax PLUS, SOFTmax PRO). A280 values are the result of two independent determinations.

[3] = GLP Aggregation Assay (time to onset of aggregation, turbidity at 350 nm); format: physicochemical; conditions: for Aggregation Time: 0.3 mg/mL in 10 mM citrate, 10 mM phosphate, 150 mM NaCl, pH 7.4 to 7.5, 37° C., stirred, turbidity at 350 nm
Method: GLP peptides of this invention were analyzed with respect to their potential to aggregate in solution. In general, peptides in solution were stirred at elevated temperature in a suitable buffer while recording turbidity at 350 nm as a function of time. Time to the onset of aggregation was measured to quantify the potential of a given GLP molecule to aggregate under these stressed conditions.
A GLP-1 compound was first dissolved under alkaline conditions (pH 10.5) for 30 minutes to dissolve any pre-aggregated material. The solution was then adjusted to pH 7.4 and filtered. Specifically, 4 mg of a lyophilized GLP-1 compound was dissolved in 3 ml of 10 mM phosphate/10 mM citrate. The pH was adjusted to 10.0-10.5 and held for 30 minutes. The solution was adjusted with HCl to pH 7.4 and filtered through a suitable filter, for example a Millex GV syringe filter (Millipore Corporation, Bedford, Mass.). This solution was then diluted to a final sample containing 0.3 mg/mL protein in 10 mM citrate, 10 mM phosphate, 150 mM NaCl, and adjusted to pH 7.4 to 7.5. […] Every five minutes the turbidity of the solution was measured at 350 nm on an AVIV Model 14DS UV-VIS spectrophotometer (Lakewood, N.J.). For 30 seconds prior to and during the measurement the solution was stirred using a magnetic stir bar from Starna Cells, Inc. (Atascadero, Calif.). An increase in OD at 350 nm indicates aggregation of the GLP-peptide. The time to aggregation was approximated by the intersection of linear fits to the pre-growth and growth phase according to method of Drake (Arvinte T, Cudd A, and Drake A F. (1993) J. Bio. Chem. 268, 6415-6422).
The cuvette was cleaned between experiments with a caustic soap solution (e.g., Contrad-70).
The results for a number of GLP-1 compounds of the present invention are reported in Table 1 as the time in hours required for the compound to aggregate.

[4] = Zn/GLP-1 molar ratio 0, 100 μM GLP-1 compound
[5] = Zn/GLP-1 molar ratio 0.3, 100 μM GLP-1 compound
[6] = Zn/GLP-1 molar ratio 0.5, 100 μM GLP-1 compound
[7] = Zn/GLP-1 molar ratio 0.7, 100 μM GLP-1 compound
[8] = Zn/GLP-1 molar ratio 1, 100 μM GLP-1 compound
[9] = Zn/GLP-1 molar ratio 2, 100 μM GLP-1 compound
[10] = Zn/GLP-1 molar ratio 3, 100 μM GLP-1 compound
[11] = Zn/GLP-1 molar ratio 5, 100 μM GLP-1 compound

## Gln^22-GLP-1(7-37)OH (HAEGTFTSDVSSYLEQQAAKEFIAWLVKGRG)
[1]
  GLP-1 Receptor Activation: 0.42
[2]; [4]
  A280: 0.290
[2]; [5]
  A280: 0.390
[2]; [6]
  A280: 0.123
[2]; [7]
  A280: 0.076
[2]; [8]
  A280: 0.074
[2]; [9]
  A280: 0.095
[2]; [10]
  A280: 0.095
[2]; [11]
  A280: 0.097
[3]
  Aggregation Time: 7 h

## Val^8-Ala^22-GLP-1(7-37)OH (HVEGTFTSDVSSYLEAQAAKEFIAWLVKGRG)
[1]
  GLP-1 Receptor Activation: 0.56
[2]; [4]
  A280: 0.289
[2]; [5]
  A280: 0.202
[2]; [6]
  A280: 0.107
[2]; [7]
  A280: 0.104
[2]; [8]
  A280: 0.110
[2]; [9]
  A280: 0.110
[2]; [10]
  A280: 0.104
[2]; [11]
  A280: 0.119
[3]
  Aggregation Time: 19 h

## Val^8-Asp^22-GLP-1(7-37)OH (HVEGTFTSDVSSYLEDQAAKEFIAWLVKGRG)
[1]
  GLP-1 Receptor Activation: 0.40
[2]; [4]
  A280: 0.288
[2]; [5]
  A280: 0.2785
[2]; [6]
  A280: 0.2845
[2]; [7]
  A280: 0.287
[2]; [8]
  A280: 0.291
[2]; [9]
  A280: 0.184
[2]; [10]
  A280: 0.1485
[2]; [11]
  A280: 0.1675
[3]
  Aggregation Time: >90 h

## Val^8-Glu^22-GLP-1(7-37)OH (HVEGTFTSDVSSYLEEQAAKEFIAWLVKGRG)
[1]
  GLP-1 Receptor Activation: 1.29
[1]; relative to GLP-1(7-37)OH
  GLP-1 receptor activation greater than GLP-1(7-37)OH: about 25%
[2]; [4]
  A280: 0.295
[2]; [5]
  A280: 0.291
[2]; [6]
  A280: 0.292
[2]; [7]
  A280: 0.293
[2]; [8]
  A280: 0.26
[2]; [9]
  A280: 0.078
[2]; [10]
  A280: 0.052
[2]; [11]
  A280: 0.035
[3]
  Aggregation Time: 72 h
[3]; relative to GLP-1(7-37)OH
  aggregation time compared with GLP-1(7-37)OH: over twenty fold greater

## Val^8-His^22-GLP-1(7-37)OH (HVEGTFTSDVSSYLEHQAAKEFIAWLVKGRG)
[1]
  GLP-1 Receptor Activation: 0.14
[3]
  Aggregation Time: >75 h

## Val^8-His^24-GLP-1(7-37)OH (HVEGTFTSDVSSYLEGQHAKEFIAWLVKGRG)
[1]
  GLP-1 Receptor Activation: 0.007
[3]
  Aggregation Time: 3 h

## Val^8-His^27-GLP-1(7-37)OH (HVEGTFTSDVSSYLEGQAAKHFIAWLVKGRG)
[1]
  GLP-1 Receptor Activation: 0.37
[3]
  Aggregation Time: 10 h

## Val^8-His^30-GLP-1(7-37)OH (HVEGTFTSDVSSYLEGQAAKEFIHWLVKGRG)
[1]
  GLP-1 Receptor Activation: 0.19
[3]
  Aggregation Time: 13 h

## Val^8-His^35-GLP-1(7-37)OH (HVEGTFTSDVSSYLEGQAAKEFIAWLVKHRG)
[1]
  GLP-1 Receptor Activation: 0.41
[3]
  Aggregation Time: > 45 h and 30 h

## Val^8-His^36-GLP-1(7-37)OH (HVEGTFTSDVSSYLEGQAAKEFIAWLVKGHG)
[1]
  GLP-1 Receptor Activation: 0.22
[3]
  Aggregation Time: 8 h

## Val^8-His^37-GLP-1(7-37)OH (HVEGTFTSDVSSYLEGQAAKEFIAWLVKGRH)
[1]
  GLP-1 Receptor Activation: 0.33
[3]
  Aggregation Time: >40 h

## Val^8-Leu^16-Glu^26-GLP-1(7-37)OH (HVEGTFTSDLSSYLEGQAAEEFIAWLVKGRG)
[1]
  GLP-1 Receptor Activation: 0.23
[3]
  Aggregation Time: >20 h

## Val^8-Lys^11-GLP-1(7-37)OH (HVEGKFTSDVSSYLEGQAAKEFIAWLVKGRG)
[1]
  GLP-1 Receptor Activation: 0.001
[3]
  Aggregation Time: 13 h

## Val^8-Lys^20-GLP-1(7-37)OH (HVEGTFTSDVSSYKEGQAAKEFIAWLVKGRG)
[1]
  GLP-1 Receptor Activation: 0.33
[3]
  Aggregation Time: 5 h

## Val^8-Lys^22-GLP-1(7-36)NH2 (HVEGTFTSDVSSYLEKQAAKEFIAWLVKGR-NH2)
[1]
  GLP-1 Receptor Activation: 0.53
[3]
  Aggregation Time: 24 h

## Val^8-Lys^22-Glu^23-GLP-1(7-37)OH (HVEGTFTSDVSSYLEKEAAKEFIAWLVKGRH)
[1]
  GLP-1 Receptor Activation: 0.35
[3]
  Aggregation Time: >30 h

## Val^8-Lys^22-Glu^30-GLP-1(7-37)OH (HVEGTFTSDVSSYLEKQAAKEFIEWLVKGRG)
[1]
  GLP-1 Receptor Activation: 0.37
[3]
  Aggregation Time: 4 h

## Val^8-Lys^23-GLP-1(7-37)OH (HVEGTFTSDVSSYLEGKAAKEFIAWLVKGRG)
[1]
  GLP-1 Receptor Activation: 0.18
[3]
  Aggregation Time: >45 h

## Val^8-Lys^24-GLP-1(7-37)OH (HVEGTFTSDVSSYLEGQKAKEFIAWLVKGRG)
[1]
  GLP-1 Receptor Activation: 0.02
[3]
  Aggregation Time: 22 h

## Val^8-Lys^33-Asn^34-GLP-1(7-37)OH
[1]
  GLP-1 Receptor Activation: 0.09
[3]
  Aggregation Time: >48 h

## Val^8-Lys^33-Val^34-GLP-1(7-37)OH (HVEGTFTSDVSSYLEGQAAKEFIAWLKVGRG)
[1]
  GLP-1 Receptor Activation: 0.08
[3]
  Aggregation Time: 22 h

## Val^8-Pro^35-GLP-1(7-37)OH (HVEGTFTSDVSSYLEGQAAKEFIAWLVKPRG)
[1]
  GLP-1 Receptor Activation: 0.094
[3]
  Aggregation Time: 14 h

## Val^8-Ser^30-GLP-1(7-37)OH (HVEGTFTSDVSSYLEGQAAKEFISWLVKGRG)
[1]
  GLP-1 Receptor Activation: 0.19
[3]
  Aggregation Time: 8 h

## Val^8-Tyr^12-GLP-1(7-37)OH (HVEGTYTSDVSSYLEGQAAKEFIAWLVKGRG)
[1]
  GLP-1 Receptor Activation: 0.81
[3]
  Aggregation Time: 6 h

## Val^8-Tyr^16-GLP-1(7-37)OH (HVEGTFTSDYSSYLEGQAAKEFIAWLVKGRG)
[1]
  GLP-1 Receptor Activation: 1.175
[3]
  Aggregation Time: 5 h

— patent US20060263849A1, “Glucagon-like peptide-1 analogs” (priority 2000, published 2006)
